Literature values, collected in PMC10003451, “Phosphorylated Peptide Derived from the Myosin Phosphatase Target Subunit Is a Novel Inhibitor of Protein Phosphatase-1” (International Journal of Molecular Sciences, 2023).

Experiments:
[1] = target: T1, PP1c (Homo sapiens, UniProt P62136); parameters: method as in 2 sources, ref 30 = [30]; PMID 12030846; doi:10.1042/bj20020401; 30. Murányi A. MacDonald J.A. Deng J.T. Wilson D.P. Haystead T.A. Walsh M.P. Erdődi F. Kiss E. Wu Y. Hartshorne D.J. Phosphorylation of the myosin phosphatase target subunit by integrin-linked kinase ||| ref 31 = [31]; PMID 19531490; doi:10.1074/jbc.M109.019729; 31. Khromov A. Choudhury N. Stevenson A.S. Somlyo A.V. Eto M. Phosphorylation-dependent autoinhibition of myosin light chain phosphatase accounts for Ca 2+ sensitization force of smooth muscle contrac
T1 construct: made in house; host or cells: E. coli
T1 sequence (P62136 whole entry): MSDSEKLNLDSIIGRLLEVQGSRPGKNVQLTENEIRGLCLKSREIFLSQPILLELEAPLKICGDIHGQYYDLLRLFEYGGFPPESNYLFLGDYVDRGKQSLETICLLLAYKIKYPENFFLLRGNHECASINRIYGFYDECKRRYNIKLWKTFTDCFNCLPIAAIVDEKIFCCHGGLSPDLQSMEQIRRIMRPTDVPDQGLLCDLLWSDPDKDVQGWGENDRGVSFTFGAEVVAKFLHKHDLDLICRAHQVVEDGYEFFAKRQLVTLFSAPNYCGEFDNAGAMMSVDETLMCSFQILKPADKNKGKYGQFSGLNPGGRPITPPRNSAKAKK

[2] = test system: MP holoenzyme; parameters: method as in PMID 19531490; conditions: phosphorylated at Thr696

B1: His-tagged MYPT1^514−963: C-terminal fragment of a recombinant His-tagged MYPT1 phosphorylated at Thr654 (protein, UniProt O14974 514-963, looked up, fragment)
chain: KENRDSSSLRTSSSYTRRKWEDDLKKNSSVNEGSTYHKSCSFGRRQDDLISSSVPSTTSTPTVTSAAGLQKSLLSSTSTTTKITTGSSSAGTQSSTSNRLWAEDSTEKEKDSVPTAVTIPVAPTVVNAAASTTTLTTTTAGTVSSTTEVRERRRSYLTPVRDEESESQRKARSRQARQSRRSTQGVTLTDLQEAEKTIGRSRSTRTREQENEEKEKEEKEKQDKEKQEEKKESETSREDEYKQKYSRTYDETYQRYRPVSTSSSTTPSSSLSTMSSSLYASSQLNRPNSLVGITSAYSRGITKENEREGEKREEEKEGEDKSQPKSIRERRRPREKRRSTGVSFWTQDSDENEQEQQSDTEEGSNKKETQTDSISRYETSSTSAGDRYDSLLGRSGSYSYLEERKPYSSRLEKDDSTDFKKLYEQILAENEKLKAQLHDTNMELTDLKLQ
modifications: His tag; phosphorylated Thr654
Question: Which IC50 ([1]; phosphorylated at Thr654 (corresponding to Thr696 in the longer MYPT1 isoform), read-out: IC50, inhibition of PP1c (literature)) does the source give for B1 here?
Answer: ~100 nM

B2: GST-MYPT1^654−880: GST-MYPT1^654−880 fragment phosphorylated at Thr696 (protein, UniProt O14974 654-880, looked up, fragment)
chain: GTVSSTTEVRERRRSYLTPVRDEESESQRKARSRQARQSRRSTQGVTLTDLQEAEKTIGRSRSTRTREQENEEKEKEEKEKQDKEKQEEKKESETSREDEYKQKYSRTYDETYQRYRPVSTSSSTTPSSSLSTMSSSLYASSQLNRPNSLVGITSAYSRGITKENEREGEKREEEKEGEDKSQPKSIRERRRPREKRRSTGVSFWTQDSDENEQEQQSDTEEGSNKK
modifications: GST fusion; phosphorylated Thr696
notes: GST-MYPT1^654−880 fragment phosphorylated at Thr696
Question: Which results are given for B2?
Answer: inhibition of MP holoenzyme (literature) [2]: inhibited MP holoenzyme potently in nanomolar concentrations; effect on PP1c (literature) ([1]; phosphorylated at Thr696): without effect on PP1c
